Reference: patent US20240343803A1 (SHANDONG SIMCERE BIOPHARMACEUTICAL, published 2024)
Numbering of substitutions follows the chain as printed. Like-named read-outs stand apart in the source and are kept apart here.

T1: Fusion protein of extracellular domain of human TIGIT and mouse IgG2a Fc fragment (human TIGIT ECD-mFc) (human)
T1 construct: The entry includes the signal peptide (limits not recoverable) and the mouse IgG2a Fc
T1 chain: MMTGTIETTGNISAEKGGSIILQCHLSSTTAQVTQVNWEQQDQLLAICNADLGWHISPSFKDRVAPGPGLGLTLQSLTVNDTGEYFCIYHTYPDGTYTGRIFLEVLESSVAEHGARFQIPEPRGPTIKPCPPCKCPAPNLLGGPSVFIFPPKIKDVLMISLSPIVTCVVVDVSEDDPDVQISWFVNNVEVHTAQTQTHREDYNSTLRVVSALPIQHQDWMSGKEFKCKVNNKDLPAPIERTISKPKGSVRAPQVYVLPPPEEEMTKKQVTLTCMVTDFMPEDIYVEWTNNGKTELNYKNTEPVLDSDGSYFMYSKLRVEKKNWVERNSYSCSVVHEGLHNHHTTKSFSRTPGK

T2: Fusion protein of extracellular domain of human TIGIT and His-tag (human TIGIT ECD-his) (human)
T2 chain: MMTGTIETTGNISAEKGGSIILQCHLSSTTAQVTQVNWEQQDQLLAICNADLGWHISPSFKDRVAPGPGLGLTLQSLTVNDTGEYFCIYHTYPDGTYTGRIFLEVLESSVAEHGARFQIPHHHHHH

T3: Full-length human TIGIT on CHO-K1 cells (CHO-K1 human TIGIT) (human, UniProt Q495A1 22-244)
T3 construct: NCBI XP_024309156.1; the entry includes the signal peptide (limits not recoverable); The strain (high, medium, low) is named under assay; also called high expression strain 1D2; medium expression strain 2D10
T3 sequence: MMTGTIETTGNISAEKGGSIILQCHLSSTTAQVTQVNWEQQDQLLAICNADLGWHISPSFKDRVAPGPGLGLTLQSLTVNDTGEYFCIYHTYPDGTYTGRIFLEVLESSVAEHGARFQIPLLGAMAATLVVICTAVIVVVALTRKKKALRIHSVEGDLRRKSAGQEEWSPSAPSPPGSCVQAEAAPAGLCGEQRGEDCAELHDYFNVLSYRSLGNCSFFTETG

T4: TIGIT on human PBMCs stimulated by SEA (human, UniProt Q495A1 22-244)
T4 construct: whole, on cells
T4 sequence (looked up): T3 sequence

B1: TIGIT-CHI-005 (antibody, V domains shown)
VH: QVQLQQSGAELVRPGTSVKVSCKASGYAFTNYLIEWVKQRPGQGLEWIGVINPGSGGTNYKEKFKGKATLTADKSSSTAYMQLSSLTSEDSAVYFCARGEYFFFDYWGQGTTLTVSS
VL: DIVMTQSHKFMSTSVGDRVSITCKASQHVSNGVAWYQHKPGQSPKLLIYSASYRYTGVPDRFTGTGSGTDFTFTISSVQAEDLAVYYCQQHYNTPHTFGGGTKLEIK
notes: Human-mouse chimeric antibody
B2: RG6058-hIgG1 (antibody, V domains shown)
VH: EVQLQQSGPGLVKPSQTLSLTCAISGDSVSSNSAAWNWIRQSPSRGLEWLGKTYYRFKWYSDYAVSVKGRITINPDTSKNQFSLQLNSVTPEDTAVFYCTRESTTYDLLAGPFDYWGQGTLVTVSS
VL: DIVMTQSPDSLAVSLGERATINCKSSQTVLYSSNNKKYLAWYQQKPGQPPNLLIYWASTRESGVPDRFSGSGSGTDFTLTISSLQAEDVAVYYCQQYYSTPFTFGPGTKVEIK
notes: Control anti-TIGIT antibody, human IgG1; also called Roche RG6058
B3: TIGIT-CHI-002 (antibody, V domains shown)
VH: EVQLQESGPGLAKPSQTLSLACSVTGYSITSDSWNWIRKFPGNKLEYMGYISYSGNTYYNPSLKSRISITRDTSKNQFYLQLNSVTTEDTATYYCARLDFSNYGGAVDYWGQGTSVTVSS
VL: DIVMTQSHTFMSTSVGDRVSITCKASQNVRTAVAWYQQKPGQSPKLMIYSASYRYTGVPDRFTGSGSGTDFTFTISSVQAEDLAVYYCQQYYTTPWTFGGGAKLEIQ
notes: Human-mouse chimeric antibody
B4: TIGIT-002-H2L3 (antibody, V domains shown)
VH: EVQLQESGPGLVKPSETLSLTCAVSGYSITSDSWNWIRQPPGKKLEWIGYISYSGNTYYNPSLKSRVTISRDTSKNQFSLKLSSVTAADTAVYYCARLDFSNYGGAVDYWGQGTTVTVSS
VL: DIVMTQSPDSLAVSLGERATINCKASQNVRTAVAWYQQKPGQSPKLMIYSASYRYTGVPDRFSGSGSGTDFTLTISSLQAEDVAVYYCQQYYTTPWTFGGGTKVEIK
notes: Humanized anti-TIGIT antibody
B5: TIGIT-002-H3L3 (antibody, V domains shown)
VH: B4 VH with I48M, V67I
VL: B4 VL
notes: Humanized anti-TIGIT antibody
B6: TIGIT-002-H1L3 (antibody, V domains shown)
VH: B4 VH with K44G
VL: B4 VL
notes: Humanized anti-TIGIT antibody

Columns and labels:
[1] = molecular target: T5, Fusion protein of extracellular domain of human TIGIT and human IgG1 Fc fragment (human TIGIT ECD-hFc) (human); experiment: blocking of TIGIT ECD-hFc binding to CHO-K1 CD155 cells
T5 construct: The entry includes the signal peptide (limits not recoverable) and the human IgG1 Fc
Summary of the method: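 Inhibition was expressed as IC50 values derived from the inhibition curves of a cell-based ELISA. CHO-K1 CD155 cells were cultured overnight, fixed, and blocked with 5% skim milk-PBS. Antibodies were first premixed for 0.5 h with human TIGIT ECD-hFc at a working concentration of 30 ng/mL, and the mixture was then added to the cells for 1.5-2 h at 37° C. Bound TIGIT was detected with HRP secondary antibody (1:5000, 37° C, 1 h) and TMB, and read as OD450 nm.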

[2] = molecular target: T1, Fusion protein of extracellular domain …; experiment: ELISA, human TIGIT ECD-mFc
Summary of the method: (§1)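 Antibodies diluted to 13 nM in 1% BSA, then 3-fold serial dilution for 12 concentrations, incubated with milk-blocked plates at 37° C for 1.5-2 h. Bound antibody detected with HRP-labelled secondary antibody (1:5000, 37° C, 1 h) and TMB, stopped with 1M HCl; OD450 nm read.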

[3] = molecular target: T2, Fusion protein of extracellular domain …; experiment: BIAcore
[4] = molecular target: T6, Fusion protein of extracellular domain of cynomolgus monkey TIGIT and mouse IgG2a Fc fragment (cynomolgus … (cynomolgus monkey)); experiment: ELISA, cynomolgus monkey TIGIT ECD-mFc
T6 construct: The entry includes the signal peptide (limits not recoverable) and the mouse IgG2a Fc
Summary of the method: as §1
Target sequence in this assay (chain, as listed by the source limits assumed): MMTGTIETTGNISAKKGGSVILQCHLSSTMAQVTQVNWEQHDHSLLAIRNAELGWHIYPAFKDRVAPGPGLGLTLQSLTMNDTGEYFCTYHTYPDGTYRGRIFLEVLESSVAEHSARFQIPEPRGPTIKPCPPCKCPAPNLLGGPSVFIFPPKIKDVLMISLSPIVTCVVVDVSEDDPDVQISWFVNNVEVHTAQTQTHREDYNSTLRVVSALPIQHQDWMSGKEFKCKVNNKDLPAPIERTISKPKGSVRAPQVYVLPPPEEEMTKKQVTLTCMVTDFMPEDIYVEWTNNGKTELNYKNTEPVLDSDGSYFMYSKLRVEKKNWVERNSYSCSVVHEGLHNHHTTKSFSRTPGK

[5] = molecular target: T7, Full-length cynomolgus monkey TIGIT on CHO-K1 cells (CHO-K1 cynomolgus monkey TIGIT) (cynomolgus monkey); experiment: cell binding, CHO-K1 cynomolgus monkey TIGIT
T7 construct: NCBI XP_015300911.1
Summary of the method: (§2)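 Binding was measured by flow cytometry after a 60-minute, 4° C incubation of the antibodies with 2×10⁵ CHO-K1 cells displaying full-length human or cynomolgus monkey TIGIT. Antibody titration: 12 points, threefold serial dilution from 80 nM, in 1% BSA-PBS.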

[6] = molecular target: T3, Full-length human TIGIT on CHO-K1 cells …; experiment: cell binding, CHO-K1 human TIGIT high expression strain
Summary of the method: as §2

[7] = molecular target: T2, Fusion protein of extracellular domain …; experiment: BIAcore; reference itself
[8] = molecular target: T3, Full-length human TIGIT on CHO-K1 cells …; experiment: FACS; CHO-K1 human TIGIT medium expression strain
Summary of the method: (§3)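 Flow cytometry was used to measure antibody binding to CHO-K1 cells carrying full-length human or cynomolgus monkey TIGIT. Antibodies were serially diluted 3-fold across 12 points from 80 nM, then combined 1:1 with cells held at 2×10⁵/50 μL in 1% BSA-PBS and kept at 4° C for 60 min.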

[9] = molecular target: T1, Fusion protein of extracellular domain …; experiment: FACS; blocking of TIGIT ECD-mFc binding to CHO-K1 CD112 cells
Procedure: The collected CHO-K1 CD112 cells were washed once with PBS (Hyclone, CAT #SH30256) and resuspended to 2×10⁵/40 μL with 1% BSA-PBS. The anti-TIGIT humanized antibodies were diluted to 600 nM with 1% BSA-PBS (diluted by 2.5-fold serial dilution for 12 concentration points). The TIGIT ECD-mFc was diluted with 1% BSA-PBS to 6 μg/mL. The 40 μL cells were then mixed with 40 μL diluted antibodies and 40 μL diluted TIGIT ECD-mFc, and then incubated at 4° C. for 60 minutes. […] The cell samples were washed twice with PBS, resuspended to 100 μL/well with 1% BSA-PBS and then analyzed by flow cytometry (BD, Canto II). […] (f) The binding activity of anti-TIGIT humanized antibodies to human PBMCs detected by FACS.

[10] = molecular target: T1, Fusion protein of extracellular domain …; experiment: FACS; blocking of TIGIT ECD-mFc binding to CHO-K1 CD155 cells
[11] = molecular target: T3, Full-length human TIGIT on CHO-K1 cells …; experiment: FACS; blocking of Bio-CD155-His binding to CHO-K1 human TIGIT cells
Summary of the method: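 For this flow cytometry blocking assay, antibody in a 12-point 3-fold dilution series starting at 210 nM was mixed at equal volume with CHO-K1 human TIGIT cells (2×10⁵/40 μL in 1% BSA-PBS) and with biotinylated CD155-His, diluted to 3 μg/mL, then held at 4° C for 60 min. Bound ligand was detected on a BD Canto II after staining with APC-streptavidin (1:1700) at 4° C for 40 min. The IC50 came from the inhibition curves.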

[12] = molecular target: T3, Full-length human TIGIT on CHO-K1 cells …; experiment: FACS; CHO-K1 human TIGIT low expression strain
Summary of the method: as §3

[13] = molecular target: T6, Fusion protein of extracellular domain …; experiment: ELISA, cynomolgus monkey TIGIT ECD-mFc; remark: listed apart in the source
[14] = molecular target: T7, Full-length cynomolgus monkey TIGIT on …; experiment: FACS; CHO-K1 cynomolgus monkey TIGIT
Summary of the method: as §3

[15] = molecular target: T3, Full-length human TIGIT on CHO-K1 cells …; experiment: FACS; CHO-K1 human TIGIT high expression strain
Summary of the method: as §3

[16] = molecular target: T1, Fusion protein of extracellular domain …; experiment: ELISA, human TIGIT ECD-mFc
[17] = molecular target: T2, Fusion protein of extracellular domain …; experiment: BIAcore
[18] = molecular target: T4, TIGIT on human PBMCs stimulated by SEA; experiment: FACS; binding to SEA-stimulated human PBMC
Procedure: The fresh human PBMCs (AllCells, PB004-C) were adjusted to a density of 5×10⁵/mL, added with SEA (Toxin Technology, Inc., CAT: AT101) to 100 ng/ml, and cultured at 37° C. with 5% CO₂ for 3 days. The cells were collected 3 days later, washed once with PBS (Hyclone, CAT #SH30256), added with Fc Block (BD, 564220) and then incubated at 4° C. for 10 minutes. After washing twice with PBS, the PBMCs were resuspended to 2×10⁵/50 μL with 1% BSA-PBS. The humanized antibodies were diluted to 80 nM with 1% BSA-PBS (diluted by 3-fold serial dilution for 12 concentration points). The 50 μL cells were then mixed with 50 μL diluted antibodies, and then incubated at 4° C. for 60 minutes. […] After washing twice with PBS, the cell samples were resuspended with 1% BSA-PBS, 100 μL/well and then analyzed by flow cytometry (BD, Canto II).

[19] = molecular target: T2, Fusion protein of extracellular domain …; experiment: BIAcore; KD ratio to TIGIT-CHI-002

T5 sequence (chain, as listed by the source limits assumed): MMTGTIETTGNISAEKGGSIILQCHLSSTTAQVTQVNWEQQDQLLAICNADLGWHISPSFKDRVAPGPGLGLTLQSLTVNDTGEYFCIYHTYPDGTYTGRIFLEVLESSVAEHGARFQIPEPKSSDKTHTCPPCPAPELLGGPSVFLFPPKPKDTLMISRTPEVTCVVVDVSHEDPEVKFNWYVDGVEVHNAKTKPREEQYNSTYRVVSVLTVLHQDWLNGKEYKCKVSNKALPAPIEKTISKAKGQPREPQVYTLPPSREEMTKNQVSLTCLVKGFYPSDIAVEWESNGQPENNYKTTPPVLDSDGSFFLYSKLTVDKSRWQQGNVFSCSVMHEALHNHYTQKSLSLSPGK
T7 sequence (chain, as listed by the source limits assumed): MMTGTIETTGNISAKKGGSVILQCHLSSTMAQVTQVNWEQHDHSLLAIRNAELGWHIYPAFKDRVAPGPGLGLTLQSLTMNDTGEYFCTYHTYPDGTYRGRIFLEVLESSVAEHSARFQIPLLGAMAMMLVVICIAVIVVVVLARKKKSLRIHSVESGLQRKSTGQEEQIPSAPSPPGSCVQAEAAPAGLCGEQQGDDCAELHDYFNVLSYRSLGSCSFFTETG

Binder | IC50 [1] | EC50 [2] | Kd [3] | koff [3] | kon [3] | EC50 [4] | EC50 [5] | EC50 [6] | Fold change vs chimeric antibodies (KD) [7] | Fold change vs chimeric antibodies (KD) [19] | further results
B1 | 0.36 nM | 0.019 nM | 0.0276 nM | 0.000113 s⁻¹ | 4.76e+06 M⁻¹ s⁻¹ | 0.0165 nM | 0.0265 nM | 0.026 nM | 1 fold | – | –
B2 | – | – | – | – | – | – | – | – | – | – | EC50 [8]: 0.652 nM; IC50 [9]: 6 nM; IC50 [10]: 0.584 nM; IC50 [11]: 0.334 nM; EC50 [12]: 0.481 nM; EC50 [13]: 0.0486 nM; EC50 [14]: 2.29 nM; EC50 [15]: 0.794 nM; EC50 [16]: 0.0393 nM; Kd [17]: 0.156 nM; koff [17]: 0.000135 s⁻¹; kon [17]: 866000 M⁻¹ s⁻¹; EC50 [18]: 0.285 nM
B3 | 0.564 nM | 0.0161 nM | 0.0421 nM | 0.0003 s⁻¹ | 7.13e+06 M⁻¹ s⁻¹ | 0.02 nM | 0.0372 nM | 0.0218 nM | 1 fold | – | –
B4 | 0.54 nM | 0.0159 nM | 0.266 nM | 0.00107 s⁻¹ | 4.03e+06 M⁻¹ s⁻¹ | 0.0337 nM | 0.15 nM | 0.0278 nM | – | 6.3 fold | –
B5 | 0.339 nM | 0.0173 nM | 0.188 nM | 0.000852 s⁻¹ | 4.52e+06 M⁻¹ s⁻¹ | 0.022 nM | 0.0919 nM | 0.0361 nM | – | 4.47 fold | –
B6 | 0.395 nM | 0.0157 nM | 0.271 nM | 0.000973 s⁻¹ | 3.59e+06 M⁻¹ s⁻¹ | 0.0511 nM | 0.143 nM | 0.0253 nM | – | 6.44 fold | –
